According to publication PMC6783348:

Biological target: CD8a extracellular domain (Homo sapiens, UniProt P01732 22-182)
Experiment: BLI

Chain of CD8a extracellular domain (P01732 22-182): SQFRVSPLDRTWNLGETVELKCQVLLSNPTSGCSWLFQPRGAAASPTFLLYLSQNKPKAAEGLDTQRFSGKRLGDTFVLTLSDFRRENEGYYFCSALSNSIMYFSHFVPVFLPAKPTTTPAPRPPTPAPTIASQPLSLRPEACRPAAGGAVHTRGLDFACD

B1: A8 (structured_DNA)
DNA: ATCCAGAGTGACGCAGCAGCTCGATCGTATAGCCGTGACGCAGCTTGAAATGGGATCGCGTCCACAGTTTTGGACACGGTGGCTTAGT
Kd: 5.59 ± 0.11 nM

B2: A3 (structured_DNA)
DNA: ATCCAGAGTGACGCAGCAACAGAGGTGTAGAAGTACACGTGAACAAGCTTGAAATTGTCTCTGACAGAGGTGGACACGGTGGCTTAGT
Kd: 14.7 ± 0.1 nM
